The target of assay [1] is human thrombin (human).
In assay [2] the target is human thrombin (human). The source holds these as a separate data set.

The values below come from paper PMC2570549.

The substance “Serp-1, secreted myxoma viral serpin (recombinant) (from UniProt P12393 1-369) (natural protein)” displayed an inhibition of thrombin (0.125 NIH units) by Serp-1 at 500 ng over 1 to 20 minutes, no heparin, discontinuous chromogenic assay in assay [1] of 86%. In assay [2], the inhibition of thrombin activity (chromogenic substrate S-2238), 19 ng Serp-1 in the presence of heparin (0.2 IU), thrombin 0.002 NIH units was 75%; the inhibition of thrombin activity (chromogenic substrate S-2238), no heparin, thrombin 0.002 NIH units, Serp-1 1250, 600 and 300 ng (75%, 65%, 25%); no inhibition at or below 150 ng was found to be 75%.
